From patent US20260274985A1 (MYTHIC THERAPEUTICS, published 2026) come the findings set out here.

First the molecules themselves.
B1: MYT13255 (antibody, V domains shown)
VH: QVQLQQSGSELKKPGASVKVSCKASGYTFTNYGMNWVKQAPGQGLKWMGWINTYTGEPTYTDDFKHRFAFSLDTSVSTAYLQISSLKADDTAVYFCARGGFGSSYWYFDVWGQGSLVTVSS
VL: DIQLTQSPSSLSASVGDRVSITCKASQDVSIAVAWYQQKPGKAPKLLIYSAHYRYTGVPDRFSGSGSGTDFTLTISSLQPEDFAVYYCQQHYHTPLTFGAGTKVEIK
notes: Sacituzumab HC-LC pairing variant
B2: MYT13254 (antibody, V domains shown)
VH: QVQLQQSGSELKKPGASVKVSCKASGYTFTNYGMNWVKQAPGQGLKWMGWINTYTGEPTYTDDFHGRFAFSLDTSVSTAYLQISSLKADDTAVYFCARGGFGSSYWYFDVWGQGSLVTVSS
VL: DIQLTQSPSSLSASVGDRVSITCKASQDVSIAVAWYQQKPGKAPKLLIYSAHYRYTGVPDRFSGSGSGTDFTLTISSLQPEDFAVYYCQQHYHTPLTFGAGTKVEIK
notes: as for B1
B3: MYT13252 (antibody, V domains shown)
VH: QVQLQQSGSELKKPGASVKVSCKASGYTFTNYGMNWVKQAPGQGLKWMGWINTYTGEPTYTDHFKGRFAFSLDTSVSTAYLQISSLKADDTAVYFCARGGFGSSYWYFDVWGQGSLVTVSS
VL: DIQLTQSPSSLSASVGDRVSITCKASQDVSIAVAWYQQKPGKAPKLLIYSAHYRYTGVPDRFSGSGSGTDFTLTISSLQPEDFAVYYCQQHYHTPLTFGAGTKVEIK
notes: as for B1
B4: MYT13253 (antibody, V domains shown)
VH: QVQLQQSGSELKKPGASVKVSCKASGYTFTNYGMNWVKQAPGQGLKWMGWINTYTGEPTYTDDHKGRFAFSLDTSVSTAYLQISSLKADDTAVYFCARGGFGSSYWYFDVWGQGSLVTVSS
VL: DIQLTQSPSSLSASVGDRVSITCKASQDVSIAVAWYQQKPGKAPKLLIYSAHYRYTGVPDRFSGSGSGTDFTLTISSLQPEDFAVYYCQQHYHTPLTFGAGTKVEIK
notes: as for B1
B5: 170-DXd (antibody, IgG1, V domains shown)
VH: QVQLQESGPGLVKPSETLSLTCTVSGGSISSYGVHWIRQPPGKGLEWIGVIWTSGVTDYNSALMGRVTISVDTSKNQFSLKLSSVTAADTAVYYCARDGDYDRYTMDYWGQGTLVTVSS
VL: DIVMTQSPDSLAVSLGERATINCRASKSVSTSGYSYMHWYQQKPGQPPKLLIYLASNLHSGVPDRFSGSGSGTDFTLTISSLQAEDVAVYYCHHSRHLPYTFGQGTKLEIK
modifications: maleimide based GGFG-DXd conjugated to hinge cysteines, average DAR of about 4
B6: 169-DXd (antibody, IgG1, V domains shown)
VH: QVQLQESGPGLVKPSETLSLTCTVSGGSISSYGVHWIRQPPGKGLEWIGVIWTSGVTDYNSALMGRVTISVDTSKNQFSLKLSSVTAADTAVYYCARDGDYDRYTMDYWGQGTLVTVSS
VL: DIVMTQSPDSLAVSLGERATINCRASKSVSTSGYSYMHWYQQKPGQPPKLLIYLASNLESGVPDRFSGSGSGTDFTLTISSLQAEDVAVYYCQHSRELPYTFGQGTKLEIK
modifications: maleimide based GGFG-DXd conjugated to hinge cysteines, average DAR of about 4
B7: 112-DXd (antibody, IgG1, V domains shown)
VH: QVQLVQSGAEVKKPGASVKVSCKASGYTFTTAGMQWVRQAPGQGLEWMGWINTHSGVPKYAEDFKGRVTISADTSTSTAYLQLSSLKSEDTAVYYCARSGFGSSYWYFDVWGQGTLVTVSS
VL: DIQMTQSPSSLSASVGDRVTITCKASQDVSTAVAWYQQKPGKAPKLLIYSASYRYTGVPSRFSGSGSGTDFTLTISSLQPEDFAVYYCQQHYITPLTFGQGTKLEIK
modifications: maleimide based GGFG-DXd conjugated to hinge cysteines, average DAR of about 4
B8: MYT13305 (antibody, V domains shown)
VH: QVQLQESGPGLVKPSETLSLTCTVSGGSISSYGVHWIRQPPGKGLEWIGVIWTSGVTDYNSALMGRVTISVDTSKNQFSLKLSSVTAADTAVYYCARDGDYDRYTHDYWGQGTLVTVSS
VL: DIVMTQSPDSLAVSLGERATINCRASKSVSTSGYSYMHWYQQKPGQPPKLLIYLASNLESGVPDRFSGSGSGTDFTLTISSLQAEDVAVYYCQHSRELPYHFGQGTKLEIK
notes: Full-length IgG from Expi293 supernatant; also called hu7E6SVG heavy chain and light chain pairing variant
B9: MYT13315 (antibody, V domains shown)
VH: QVQLQESGPGLVKPSETLSLTCTVSGGSISSYGVHWIRQPPGKGLEWIGVIWTSGVTDYNSALMGRVTISVDTSKNQFSLKLSSVTAADTAVYYCARDGDYDRYTHDYWGQGTLVTVSS
VL: DIVMTQSPDSLAVSLGERATINCRASKSVSTSGYSYMHWYQQKPGQPPKLLIYLASNLHSGVPDRFSGSGSGTDFTLTISSLQAEDVAVYYCQHSRELPYHFGQGTKLEIK
notes: as for B8
B10: MYT13295 (antibody, V domains shown)
VH: QVQLQESGPGLVKPSETLSLTCTVSGGSISSYGVHWIRQPPGKGLEWIGVIWTSGVTDYNSALMGRVTISVDTSKNQFSLKLSSVTAADTAVYYCARDGDYDRYTHDYWGQGTLVTVSS
VL: DIVMTQSPDSLAVSLGERATINCRASKSVSTSGYSYMHWYQQKPGQPPKLLIYLASNLESGVPDRFSGSGSGTDFTLTISSLQAEDVAVYYCQASRELPYTFGQGTKLEIK
notes: as for B8
B11: MYT13310 (antibody, V domains shown)
VH: QVQLQESGPGLVKPSETLSLTCTVSGGSISSYGVHWIRQPPGKGLEWIGVIWTSGVTDYNSALMGRVTISVDTSKNQFSLKLSSVTAADTAVYYCARDGDYDRYTHDYWGQGTLVTVSS
VL: DIVMTQSPDSLAVSLGERATINCRASKSVSTSGYSYMHWYQQKPGQPPKLLIYLASNLHSGVPDRFSGSGSGTDFTLTISSLQAEDVAVYYCQASRELPYTFGQGTKLEIK
notes: as for B8
B12: MYT13199 (antibody, V domains shown)
VH: QVQLQQSGSELKKPGASVKVSCKASGYTFTNYGMNWVKQAPGQGLKWMGWINTYTGEPTYTDDFKHRFAFSLDTSVSTAYLQISSLKADDTAVYFCARGGFGSSYWYFDVWGQGSLVTVSS
VL: DIQLTQSPSSLSASVGDRVSITCKASQDVSIAVAWYQQKPGKAPKLLIYSASHRYTGVPDRFSGSGSGTDFTLTISSLQPEDFAVYYCQQHYITPLTFGAGTKVEIK
notes: Sacituzumab HC-LC pairing variant; IgG
B13: MYT13203 (antibody, V domains shown)
VH: QVQLQQSGSELKKPGASVKVSCKASGYTFTNYGMNWVKQAPGQGLKWMGWINTYTGEPTYTHDFKGRFAFSLDTSVSTAYLQISSLKADDTAVYFCARGGFGSSYWYFDVWGQGSLVTVSS
VL: DIQLTQSPSSLSASVGDRVSITCKASQDVSIAVAWYQQKPGKAPKLLIYSASYRYTGVPDRFSGSGSGTDFTLTISSLQPEDFAVYYCHQHYITPLTFGAGTKVEIK
notes: as for B12
B14: MYT13187 (antibody, V domains shown)
VH: QVQLQQSGSELKKPGASVKVSCKASGYTFTNYGMNWVKQAPGQGLKWMGWINTYTGEPTYTHDFKGRFAFSLDTSVSTAYLQISSLKADDTAVYFCARGGFGSSYWYFDVWGQGSLVTVSS
VL: DIQLTQSPSSLSASVGDRVSITCKASQDVSIAVAWYQQKPGKAPKLLIYSAHYRYTGVPDRFSGSGSGTDFTLTISSLQPEDFAVYYCQQHYITPLTFGAGTKVEIK
notes: as for B12
B15: MYT13198 (antibody, V domains shown)
VH: QVQLQQSGSELKKPGASVKVSCKASGYTFTNYGMNWVKQAPGQGLKWMGWINTYTGEPTYTDDFHGRFAFSLDTSVSTAYLQISSLKADDTAVYFCARGGFGSSYWYFDVWGQGSLVTVSS
VL: DIQLTQSPSSLSASVGDRVSITCKASQDVSIAVAWYQQKPGKAPKLLIYSASHRYTGVPDRFSGSGSGTDFTLTISSLQPEDFAVYYCQQHYITPLTFGAGTKVEIK
notes: as for B12

The target of the first experiment is T1, Human TROP2 Protein, His Tag (Acro Biosystems) (human, UniProt P09758 27-274).
T1 construct: also called TACSTD2; not shown: His tag
T1 sequence (looked up): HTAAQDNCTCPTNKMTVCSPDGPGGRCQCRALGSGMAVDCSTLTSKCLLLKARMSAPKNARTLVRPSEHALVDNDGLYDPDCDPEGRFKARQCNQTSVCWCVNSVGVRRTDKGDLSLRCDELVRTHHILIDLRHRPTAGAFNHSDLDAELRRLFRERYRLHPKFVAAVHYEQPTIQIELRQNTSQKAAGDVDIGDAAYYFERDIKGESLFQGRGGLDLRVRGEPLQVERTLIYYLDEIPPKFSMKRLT
As to the kind of experiment: BLI (Octet) [2/2]. (BLI is a label-free optical method that tracks binding on a fibre tip over time.)
Turning to B1, the binding result is “binds”.
The same measure, in the same setting: then B2, with “binds”; and B3, with “binds”.
For the molecule B4, the binding result was “binds”.

In the next experiment the target is T2, TROP2 on TROP2-positive NCI-H1975 cells (human, UniProt P09758 27-323).
T2 sequence: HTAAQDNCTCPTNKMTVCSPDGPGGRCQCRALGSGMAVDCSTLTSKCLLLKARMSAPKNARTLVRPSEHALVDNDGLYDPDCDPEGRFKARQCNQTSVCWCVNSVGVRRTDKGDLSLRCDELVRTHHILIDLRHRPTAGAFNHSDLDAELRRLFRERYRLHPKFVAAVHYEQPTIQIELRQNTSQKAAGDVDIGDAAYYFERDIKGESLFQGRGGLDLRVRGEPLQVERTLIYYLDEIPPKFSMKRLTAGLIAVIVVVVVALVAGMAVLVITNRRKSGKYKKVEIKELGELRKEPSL
As to the kind of experiment: cell-based or functional assay.
With B5, the “% efficiency @ 100 nM ADC (cytotoxicity in NCI-H1975 cells)” value turned out to be 5.39%.
Consider B6, for which the “% efficiency @ 100 nM ADC (cytotoxicity in NCI-H1975 cells)” value is -3.5%.
On the same count and under the same terms, the value for B7 was -1.22%.

The target in a further experiment is T3, Human TROP2 Protein, His Tag (Acro Biosystems) (human, UniProt P09758 27-274).
T3 construct: not shown: His tag
T3 sequence (looked up): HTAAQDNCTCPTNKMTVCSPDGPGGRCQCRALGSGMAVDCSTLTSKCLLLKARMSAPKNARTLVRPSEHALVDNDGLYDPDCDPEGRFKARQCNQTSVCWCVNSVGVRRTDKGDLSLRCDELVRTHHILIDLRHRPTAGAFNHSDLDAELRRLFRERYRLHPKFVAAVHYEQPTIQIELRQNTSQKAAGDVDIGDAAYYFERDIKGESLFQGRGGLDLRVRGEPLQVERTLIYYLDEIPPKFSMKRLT
As to the kind of experiment: BLI (Octet).
In the case of B8, the binding result is “no binding (tested: 50 nM)”.
On the same count and under the same terms, the value for B9 was “no binding (tested: 50 nM)”; that for B10 was “no binding (tested: 50 nM)”; that for B11 was “no binding (tested: 50 nM)”.

A further experiment addresses T4, Human TROP2 Protein, His Tag (Acro Biosystems) (human, UniProt P09758 27-274).
T4 construct: Soluble analyte of the Octet assay; also called TACSTD2; not shown: His tag
T4 sequence (looked up): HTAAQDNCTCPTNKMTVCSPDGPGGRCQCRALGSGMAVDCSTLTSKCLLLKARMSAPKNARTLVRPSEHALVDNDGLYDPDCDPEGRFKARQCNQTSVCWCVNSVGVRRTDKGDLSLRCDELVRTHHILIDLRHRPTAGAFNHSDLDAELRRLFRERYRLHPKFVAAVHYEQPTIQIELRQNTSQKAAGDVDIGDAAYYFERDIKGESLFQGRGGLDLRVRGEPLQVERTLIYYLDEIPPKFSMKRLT
As to the kind of experiment: BLI (Octet), IgG on anti-human Fc sensor, soluble TROP2; grade 2 = No change vs parent. On the procedure:
After allowing for four days of protein expression, cell culture supernatants were collected, quantified by SDS-PAGE analysis (DNS), and the pH dependence of the variant was evaluated using biolayer interferometry (BLI) on an Octet RED 96e instrument. Briefly, cell culture supernatants were diluted based on qualitative expression level of the variant determined by visual examination of SDS-PAGE gels, 5 μL of cell culture supernatant was diluted into 195 μL of 1×PBST, pH 7.4 for high expressors, 25 μL of cell culture supernatant was diluted into 175 μL of 1×PBST, pH 7.4 for medium expressors and 100 μL of cell culture supernatant was diluted into 100 μL of 1×PBST, pH 7.4 for low expressors for loading onto the sensor tips. The resulting diluted supernatants were then captured on an anti-human Fc sensor (Forte Bio). A baseline was established using 1×PBST (50 mM Potassium Phosphate Buffer+150 mM NaCl+0.05% Tween 20) pH 7.4, and the sensor was associated with 50 nM of TROP2 (Human TROP2 Protein, His Tag, Acro Biosystems) in 1×PBST pH 7.4 for 120 sec to generate an association curve. In the dissociation phase, the antibody-antigen complex on the sensor was exposed to 1×PBST pH 7.4 or pH 5.4, for 300 sec. Association and dissociation phase curves were examined for the starting ABPC antibody (with no substitutions) and each corresponding antibody variant at pH 5.4 and pH 7.4 to inform on two criteria: a) enhanced dissociation (i.e., higher koff values) at pH 5.4 due to histidine or alanine substitution compared to the starting ABPC, (with no substitutions), and b) reduced dissociation at pH 7.4 (i.e., lower koff values) compared to pH 5.4 in the antibody variant itself and with the starting ABPC (with no substitutions). […] It was also noted that while some mutations obliterated TROP2 binding, others were tolerated with little or n change in TROP2 binding kinetics.
As for B12, the binding result was “binds”.
Same read-out and setting: the value for B13 was “binds”; that for B14 was “binds”.
On the same count and under the same terms, then B15, with “binds”.
